Test results from US20070099830.

How the values were obtained:
[1] = target: bovine recombinant glutamate dehydrogenase, P00366
bovine recombinant glutamate dehydrogenase, P00366, sequence (P00366 58-558): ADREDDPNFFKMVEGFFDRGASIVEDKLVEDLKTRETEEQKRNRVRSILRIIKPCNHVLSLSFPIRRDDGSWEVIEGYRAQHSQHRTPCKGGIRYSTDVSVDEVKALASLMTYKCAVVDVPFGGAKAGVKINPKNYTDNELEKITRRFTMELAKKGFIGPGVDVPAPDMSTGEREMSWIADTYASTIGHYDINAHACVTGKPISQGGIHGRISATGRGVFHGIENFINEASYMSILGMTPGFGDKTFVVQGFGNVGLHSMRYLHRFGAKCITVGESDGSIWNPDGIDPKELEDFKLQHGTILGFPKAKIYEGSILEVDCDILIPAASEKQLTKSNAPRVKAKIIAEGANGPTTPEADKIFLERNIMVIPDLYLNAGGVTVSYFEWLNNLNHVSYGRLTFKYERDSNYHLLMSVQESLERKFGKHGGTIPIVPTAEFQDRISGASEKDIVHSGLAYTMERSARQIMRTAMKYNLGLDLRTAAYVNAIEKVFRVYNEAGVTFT

B1: human Sirt4 with a C-terminal FLAG (protein)
chain: IGLFVPASPPLDPEKVKELQRFITLSKRLLVMTGAGISTESGIPDYRSEKVGLYARTDRRPIQHGDFVRSAPIRQRYWARNFVGWPQFSSHQPNPAHWALSTWEKLGKLYWLVTQNVDALHTKAGSRRLTELHGCMDRVLCLDCGEQTPRGVLQERFQVLNPTWSAEAHGLAPDGDVFLSEEQVRSFQVPTCVQCGGHLKPDVVFFGDTVNPDKVDFVHKRVKEADSLLVVGSSLQVYSGYRFILTAWEKKLPIAILNIGPTRSDDLACLKLNSRCGELLPLIDPC
- glutamate dehydrogenase activity (disappearance of NADH, A340) after one hour with Sirt4 and NAD [1]: Sirt4, but not the buffer control, significantly reduced the enzymatic activity of glutamate dehydrogenase
- mass spectroscopy of histone 2A after incubation with Sirt4 and NAD (histone 2A protein): Sirt4 transferred an approximately 500 Dalton moiety to Histone 2A
